Assay results from patent publication US20190256612A1 (NEW YORK UNIVERSITY, published 2019).

Assays:
[1] = target: T1, glutaraldehyde polymerized Aβ1-42 (oligomeric Aβ1-42) (UniProt P05067 672-713); experiment: SPR, polymerized Aβ1-42 immobilised, antibody injected
T1 construct: domain: Aβ1-42

[2] = target: T2, Aβ1-40; experiment: immunoblot after SDS-PAGE, antigen on nitrocellulose, anti-mouse IgM detection
T2 construct: also called Aβ1-40 as loaded on the gel (not polymerized)

[3] = target: T3, Aβ40p (Covalently polymerized with glutaraldehyde into stable oligomers. The cross-links between copies cannot be carried by the letters, so only the monomer unit is given.); experiment: as above
T3 construct: also called Aβ1-40 polymerized; Aβ1-40 polymerized with glutaraldehyde

B1: anti-β-sheet conformational monoclonal antibody (aβComAb) GW-23B7 (antibody)
heavy: EVQLQQSVAELVRPGASVKLSCTASGFNIKNTYMHWVKQRPEQGLEWIGRIDPANGNTKYAPKFQGKATITADTSSNTAYLQLSSLTSEDTAIYYCARGSFYAMDYWGQGTSVTVSSESQSFPNVFPLVSCESPLSDKNLVAMGCLARDFLPSTISFTWNYQNNTEVIQGIRTFPTLRTGGKYLATSQVLLSPKSILEGSDEYLVCKIHYGGKNRDLHVPIPAVAEMNPNVNVFVPPRDGFSGPAPRKSKLICEATNFTPKPITVSWLKDGKLVESGFTTDPVTIENKGSTPQTYKVISTLTISEIDWLNLNVYTCRVDHRGLTFLKNVSSTCAASPSTDILTFTIPPSFADIFLSKSANLTCLVSNLATYETLNISWASQSGEPLETKIKIMESHPNGTFSAKGVASVCVEDWNNRKEFVCTVTHRDLPSPQKKFISKPNEVHKHPPAVYLLPPAREQLNLRESATVTCLVKGFSPADISVQWLQRGQLLPQEKYVTSAPMPEPGAPGFYFTHSILTVTEEEWNSGETYTCVVGHEALPHLVTERTVDKSTGKPTLYNVSLIMSDTGGTCY
light: DVQITQSPSYLAASPGETITINCRASKSINKYLAWYQEKPGKTNKLLIYSGSTLQSGIPSRFSGSGSGTDFTLTISSLEPEDFAMYHCQQHNEYPWTFGGGTKLEIKRADAAPTVSIFPPSSEQLTSGGASVVCFLNNFYPRDINVKWKIDGSERQNGVLNSWTDQDSKDSTYSMSSTLTLTKDEYERHNSYTCEATHKTSTSPIVKSFNRNEC
- Kd [1]: 14 nM
- binding result [2]: binds
- binding result [3]: binds
